{"source": "patent US20070189963A1", "about": "(EIDGENOSSISCHE TECHNISCHE HOCHSCHULE ZURICH, published 2007)", "key": {"[1]": {"molecular_target": "hen egg lysozyme (hen) (UniProt P00698)", "sequence (P00698 19-147)": "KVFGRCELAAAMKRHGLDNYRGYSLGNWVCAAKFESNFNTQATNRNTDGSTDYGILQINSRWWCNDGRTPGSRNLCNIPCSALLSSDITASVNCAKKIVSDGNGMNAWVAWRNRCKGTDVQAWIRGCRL", "test": "125I-labeled scFv loaded on an antigen column, counting of flow-through and eluate"}, "[2]": {"molecular_target": "hen egg lysozyme (hen) (UniProt P00698)", "test": "affinity chromatography of the Cy5 conjugate on an antigen column"}, "[3]": {"molecular_target": "T1, recombinant ED-B domain of fibronectin (UniProt P02751 1266-1356, biotinylated (biotin disulfide N-hydroxysuccinimide ester) in ELISA and ECL competition; Cy5 at the N-terminal extremity in the band-shift assay)", "T1 construct": "domain: ED-B; Recombinant fragment as in Carnemolla et al. 1996; also called biotinylated ED-B; ED-B-biotin", "T1 sequence (P02751 1266-1356 limits assumed)": "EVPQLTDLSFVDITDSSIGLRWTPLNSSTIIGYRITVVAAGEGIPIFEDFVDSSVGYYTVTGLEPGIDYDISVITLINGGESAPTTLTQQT", "test": "SPR (BIAcore), purified scFv", "procedure": "(§1) Meth., 206, 171-182) and affinity purified onto a CNBr-activated sepharose column (Pharmacia, Uppsala, Sweden), which had been coupled with 10 mg of ED-B containing 7B89 recombinant protein (Carnemolla et al. (1996). lnt. J. Cancer, 68, 397-405). After loading, the column was washed with 50 ml of equilibration buffer (PBS, 1 mM EDTA, 0.5 M NaCl). Antibody fragments were then eluted with triethylamine 100 mM, immediately neutralised with 1M Hepes, pH 7, and dialysed against PBS, Affinity measurements by BlAcore were performed with purified antibodies as described (Neri et al. (1997). Nature Biotechnol., 15 1271-1275) [FIG. 4]. Band-shift analysis was performed as described (Neri et al. (1996). Nature Biotechnology, 14, 385-390), using recombinant ED-B fluorescently labeled at the N-terminal extremity (Carnemolla et al. (1996). lnt. J. Cancer, 68, 397-405, Neri et al. (1997). Nature Biotechnol., 15 1271-1275) with the infrared fluorophore Cy5 (Amersham) [FIG. 4]. […] We therefore peformed measurements of the kinetic dissociation constant koff by competition experiments (Neri et al. (1996), Trends in Biotechnol., 14, 465-470) [FIG. 4]. […] Streptavidin-coated dynabeads, diluted in Origen Assay Buffer (Deaver, D. R. (1995). Nature, 377, 758-760) were then added (20 μl, 1 mg/ml), and the resulting mixtures analysed with a ORIGEN Analyzer (IGEN Inc. Gaithersburg, Md. USA). […]"}, "[4]": {"molecular_target": "T1, recombinant ED-B domain of fibronectin", "test": "Kd = koff/kon, koff from ECL competition, kon from BIAcore", "procedure": "as §1, with “J.” for “Meth., 206, 171-182) and affinity purified onto a CNBr-activated sepharose column (Pharmacia, Uppsala, Sweden), which had been coupled with 10 mg of ED-B containing 7B89 recombinant protein (Carnemolla et al. (1996). lnt. J.”"}, "[5]": {"molecular_target": "T1, recombinant ED-B domain of fibronectin", "test": "competition of scFv-(ED-B-biotin) complex with unbiotinylated ED-B, electrochemiluminescent detection (Origen)", "procedure": "as §1, with “J.” for “Meth., 206, 171-182) and affinity purified onto a CNBr-activated sepharose column (Pharmacia, Uppsala, Sweden), which had been coupled with 10 mg of ED-B containing 7B89 recombinant protein (Carnemolla et al. (1996). lnt. J.”"}, "[6]": {"molecular_target": "T1, recombinant ED-B domain of fibronectin", "test": "SPR (BIAcore)", "procedure": "After loading, the column was washed with 50 ml of equilibration buffer (PBS, 1 mM EDTA, 0.5 M NaCl). Antibody fragments were then eluted with triethylamine 100 mM, immediately neutralised with 1M Hepes, pH 7, and dialysed against PBS, Affinity measurements by BlAcore were performed with purified antibodies as described (Neri et al. (1997). Nature Biotechnol., 15 1271-1275) [FIG. 4]. Band-shift analysis was performed as described (Neri et al. (1996). Nature Biotechnology, 14, 385-390), using recombinant ED-B fluorescently labeled at the N-terminal extremity (Carnemolla et al. (1996). lnt. J. Cancer, 68, 397-405, Neri et al. (1997). Nature Biotechnol., 15 1271-1275) with the infrared fluorophore Cy5 (Amersham) [FIG. 4]. […] We therefore peformed measurements of the kinetic dissociation constant koff by competition experiments (Neri et al. (1996), Trends in Biotechnol., 14, 465-470) [FIG. 4]. […] Streptavidin-coated dynabeads, diluted in Origen Assay Buffer (Deaver, D. R. (1995). Nature, 377, 758-760) were then added (20 μl, 1 mg/ml), and the resulting mixtures analysed with a ORIGEN Analyzer (IGEN Inc. Gaithersburg, Md. USA)."}}, "data": [{"molecule": "scFv(D1.3)", "values": [{"measurement": "immunoreactivity", "setting": "[1]", "result": 80, "unit": "%"}]}, {"molecule": "scFv(HyHEL-10)", "values": [{"measurement": "immunoreactivity", "setting": "[2]", "result": "> 78", "unit": "%"}]}, {"molecule": "scFv L19 (high-affinity anti-ED-B human scFv antibody fragment) (scFv, T0005 (VH, linker, VL) is not labelled L19 itself; also called antibody L19) scFv: EVQLLESGGGLVQPGGSLRLSCAASGFTFSSFSMSWVRQAPGKGLEWVSSISGSSGTTYYADSVKGRFTISRDNSKNTLYLQMNSLRAEDTAVYYCAKPFPYFDYWGQGTLVTVSSGDGSSGGSGGASTGEIVLTQSPGTLSLSPGERATLSCRASQSVSSSYLAWYQQKPGQAPRLLIYYASSRATGIPDRFSGSGSGTDFTLTISRLEPEDFAVYYCQQTGRIPPTFGQGTKVEIKDDDSDDDYKDDDDKHHHHHH", "values": [{"measurement": "kon", "setting": "[3]", "result": 110000, "unit": "M⁻¹ s⁻¹"}, {"measurement": "Kd", "setting": "[4]", "result": 54, "unit": "pM"}, {"measurement": "koff", "setting": "[5]", "result": "6e-06", "unit": "s⁻¹"}, {"measurement": "koff", "setting": "[6]", "result": "9.6e-05", "unit": "s⁻¹"}]}]}
